# Assay results taken from patent US20170035908A1 (published 2017).
# B1: humanized PAM4 antibody (antibody, V domains shown)
# VH: QVQLQQSGAEVKKPGASVKVSCEASGYTFPSYVLHWVKQAPGQGLEWIGYINPYNDGTQYNEKFKGKATLTRDTSINTAYMELSRLRSDDTAVYYCARGFGGSYGFAYWGQGTLVTVSS
# VL: DIQLTQSPSSLSASVGDRVTMTCSASSSVSSSYLYWYQQKPGKAPKLWIYSTSNLASGVPARFSGSGSGTDFTLTISSLQPEDSASYFCHQWNRYPYTFGGGTRLEIKR
# notes: also called hPAM4; hPAM4 IgG
# Biological target: T1, PAM4 antigen (pancreatic cancer mucin, CaPan1 human pancreatic tumor)
# T1 construct: also called CaPan1 Ag; CaPan1 antigens
# Experiment: ELISA on target mucin antigen (FIG. 9)
binder,measurement,value
B1,EC50,1.31 nM
